Assay results from US20220025055A1 (Boehringer Ingelheim, published 2022).

T1: human FLT3 (FMS-like tyrosine kinase 3) (human, UniProt P36888 27-993)
T1 sequence (looked up): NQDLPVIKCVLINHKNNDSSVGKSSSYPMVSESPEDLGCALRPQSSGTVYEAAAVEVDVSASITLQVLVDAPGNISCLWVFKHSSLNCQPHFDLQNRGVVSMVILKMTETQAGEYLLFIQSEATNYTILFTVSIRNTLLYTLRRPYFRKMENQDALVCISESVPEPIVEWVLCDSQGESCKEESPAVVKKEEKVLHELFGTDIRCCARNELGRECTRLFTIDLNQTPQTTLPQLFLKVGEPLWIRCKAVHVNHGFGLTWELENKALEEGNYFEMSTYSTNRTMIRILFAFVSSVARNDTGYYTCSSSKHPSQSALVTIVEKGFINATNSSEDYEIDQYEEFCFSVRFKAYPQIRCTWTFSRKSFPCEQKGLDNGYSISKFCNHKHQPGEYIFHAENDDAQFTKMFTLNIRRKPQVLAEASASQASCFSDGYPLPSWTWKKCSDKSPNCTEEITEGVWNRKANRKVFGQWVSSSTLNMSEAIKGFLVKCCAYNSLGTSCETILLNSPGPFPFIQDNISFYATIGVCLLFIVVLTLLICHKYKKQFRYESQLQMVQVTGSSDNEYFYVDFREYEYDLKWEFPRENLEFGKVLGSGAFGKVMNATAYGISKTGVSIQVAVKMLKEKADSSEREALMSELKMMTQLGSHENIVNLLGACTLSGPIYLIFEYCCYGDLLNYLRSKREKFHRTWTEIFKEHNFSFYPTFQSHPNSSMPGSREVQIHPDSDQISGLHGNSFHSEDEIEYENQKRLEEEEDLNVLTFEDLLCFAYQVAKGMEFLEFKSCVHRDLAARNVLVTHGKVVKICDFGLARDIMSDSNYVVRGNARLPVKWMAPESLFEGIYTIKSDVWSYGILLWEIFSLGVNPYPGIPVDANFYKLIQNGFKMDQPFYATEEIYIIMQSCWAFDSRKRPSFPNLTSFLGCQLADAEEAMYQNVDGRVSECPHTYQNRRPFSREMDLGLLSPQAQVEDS


target: T1, human FLT3 (FMS-like tyrosine kinase 3); experiment: cell-based or functional assay

Row | Binder | Single dose STAT5-Luc assay, activity relative to NB1016 (chimeric), antibody at 1 nM [%]
1 | Humanized VH5 x Humanized VL4 (antibody, V domains shown) VH: EVQLVESGGVVVQPGGSLRLSCAPSGFTFSNYGMAWVRQAPGKGLEWVSSIHSGGGDTYYADSVKGRFTISRDNSKNSLYLQMNSLRTEDTALYYCARGRTPTGYYFDHWGQGTMVTVSS VL: DIQMTQSPSSLSASVGDRVTITCRASEGIHNGLAWYQQKPGKAPKRLIYNANSLHSRVPSRFSGSGSGTEFTLTISSLQPEDFATYYCQQYYDYPLTFGQGTKLEIK | 77
2 | Humanized VH1 x Humanized VL2 (antibody, V domains shown) VH: EVQLLESGGGLVQPGGSLRLSCAPSGFTFSNYGMAWVRQAPGKGLEWVSSIHSGGGDTYYRDSVKGRFTISRDNSKNTLYLQMNSLRAEDTAVYYCARGRTPTGYYFDHWGQGTMVTVSS VL: AIQMTQSPSSLSASVGDRVTITCRASEGIHNGLAWYQQKPGKAPKLLIYNANSLHSGVPSRFSGSGSGTDFTLTISSLQPEDFATYYCQQYYDYPLTFGQGTKLEIK | 72
3 | Humanized VH3 x Humanized VL2 (antibody, V domains shown) VH: EVQLVESGGGLVQPGGSLRLSCAPSGFTFSNYGMAWVRQAPGKGLVWVSSIHSGGGDTYYRDSVKGRFTISRDNAKNTLYLQMNSLRAEDTAVYYCARGRTPTGYYFDHWGQGTMVTVSS VL: AIQMTQSPSSLSASVGDRVTITCRASEGIHNGLAWYQQKPGKAPKLLIYNANSLHSGVPSRFSGSGSGTDFTLTISSLQPEDFATYYCQQYYDYPLTFGQGTKLEIK | 81
4 | Humanized VH5 x Humanized VL5 (antibody, V domains shown) VH: EVQLVESGGVVVQPGGSLRLSCAPSGFTFSNYGMAWVRQAPGKGLEWVSSIHSGGGDTYYADSVKGRFTISRDNSKNSLYLQMNSLRTEDTALYYCARGRTPTGYYFDHWGQGTMVTVSS VL: EIVMTQSPATLSVSPGERATLSCRASEGIHNGLAWYQQKPGQAPRLLIYNANSLHSGIPARFSGSGSGTEFTLTISSLQSEDFAVYFCQQYYDYPLTFGQGTKLEIK | 75
5 | Humanized VH1 x Humanized VL4 (antibody, V domains shown) VH: EVQLLESGGGLVQPGGSLRLSCAPSGFTFSNYGMAWVRQAPGKGLEWVSSIHSGGGDTYYRDSVKGRFTISRDNSKNTLYLQMNSLRAEDTAVYYCARGRTPTGYYFDHWGQGTMVTVSS VL: DIQMTQSPSSLSASVGDRVTITCRASEGIHNGLAWYQQKPGKAPKRLIYNANSLHSRVPSRFSGSGSGTEFTLTISSLQPEDFATYYCQQYYDYPLTFGQGTKLEIK | 91
6 | Humanized VH4 x Humanized VL2 (antibody, V domains shown) VH: QVQLVESGGGVVQPGRSLRLSCAASGFTFSNYGMAWVRQAPGKGLEWVASIHSGGGDTYYRDSVKGRFTISRDNSKNTLYLQMNSLRAEDTATYYCARGRTPTGYYFDHWGQGTMVTVSS VL: AIQMTQSPSSLSASVGDRVTITCRASEGIHNGLAWYQQKPGKAPKLLIYNANSLHSGVPSRFSGSGSGTDFTLTISSLQPEDFATYYCQQYYDYPLTFGQGTKLEIK | 90

target: T1, human FLT3 (FMS-like tyrosine kinase 3); experiment: cell-based or functional assay; remark: another data set of the same source

Row | Binder | EC50 in AML5 proliferation assay [nM]
7 | Humanized VH1 x Humanized VL3 (antibody, V domains shown) VH: EVQLLESGGGLVQPGGSLRLSCAPSGFTFSNYGMAWVRQAPGKGLEWVSSIHSGGGDTYYRDSVKGRFTISRDNSKNTLYLQMNSLRAEDTAVYYCARGRTPTGYYFDHWGQGTMVTVSS VL: AIQLTQSPSSLSASVGDRVTITCRASEGIHNGLAWYQQKPGKAPKLLIYNANSLHSRVPSRFSGSGSGTDFTLTISSLQPEDFATYFCQQYYDYPLTFGQGTKLEIK | 0.105
8 | Humanized VH4 x Humanized VL4 (antibody, V domains shown) VH: QVQLVESGGGVVQPGRSLRLSCAASGFTFSNYGMAWVRQAPGKGLEWVASIHSGGGDTYYRDSVKGRFTISRDNSKNTLYLQMNSLRAEDTATYYCARGRTPTGYYFDHWGQGTMVTVSS VL: DIQMTQSPSSLSASVGDRVTITCRASEGIHNGLAWYQQKPGKAPKRLIYNANSLHSRVPSRFSGSGSGTEFTLTISSLQPEDFATYYCQQYYDYPLTFGQGTKLEIK | 0.095
9 | Humanized VH1 x Humanized VL5 (antibody, V domains shown) VH: EVQLLESGGGLVQPGGSLRLSCAPSGFTFSNYGMAWVRQAPGKGLEWVSSIHSGGGDTYYRDSVKGRFTISRDNSKNTLYLQMNSLRAEDTAVYYCARGRTPTGYYFDHWGQGTMVTVSS VL: EIVMTQSPATLSVSPGERATLSCRASEGIHNGLAWYQQKPGQAPRLLIYNANSLHSGIPARFSGSGSGTEFTLTISSLQSEDFAVYFCQQYYDYPLTFGQGTKLEIK | 0.097
10 | Humanized VH3 x Humanized VL1 (antibody, V domains shown) VH: EVQLVESGGGLVQPGGSLRLSCAPSGFTFSNYGMAWVRQAPGKGLVWVSSIHSGGGDTYYRDSVKGRFTISRDNAKNTLYLQMNSLRAEDTAVYYCARGRTPTGYYFDHWGQGTMVTVSS VL: DIQMTQSPSSLSASVGDRVTITCRASEGIHNGLAWYQQKPGKVPKLLIYNANSLHSGVPSRFSGSGSGTDFTLTISSLQPEDVATYFCQQYYDYPLTFGQGTKLEIK | 0.076
11 | Humanized VH4 x Humanized VL1 (antibody, V domains shown) VH: QVQLVESGGGVVQPGRSLRLSCAASGFTFSNYGMAWVRQAPGKGLEWVASIHSGGGDTYYRDSVKGRFTISRDNSKNTLYLQMNSLRAEDTATYYCARGRTPTGYYFDHWGQGTMVTVSS VL: DIQMTQSPSSLSASVGDRVTITCRASEGIHNGLAWYQQKPGKVPKLLIYNANSLHSGVPSRFSGSGSGTDFTLTISSLQPEDVATYFCQQYYDYPLTFGQGTKLEIK | 0.082
12 | Humanized VH4 x Humanized VL3 (antibody, V domains shown) VH: QVQLVESGGGVVQPGRSLRLSCAASGFTFSNYGMAWVRQAPGKGLEWVASIHSGGGDTYYRDSVKGRFTISRDNSKNTLYLQMNSLRAEDTATYYCARGRTPTGYYFDHWGQGTMVTVSS VL: AIQLTQSPSSLSASVGDRVTITCRASEGIHNGLAWYQQKPGKAPKLLIYNANSLHSRVPSRFSGSGSGTDFTLTISSLQPEDFATYFCQQYYDYPLTFGQGTKLEIK | 0.091
13 | Humanized VH2 x Humanized VL3 (antibody, V domains shown) VH: EVQLVESGGGLVQPGGSLRLSCAASGFTFSNYGMAWVRQAPGKGLEWVASIHSGGGDTYYRDSVKGRFTISRDNAKNSLYLQMNSLRAEDTAVYYCARGRTPTGYYFDHWGQGTMVTVSS VL: AIQLTQSPSSLSASVGDRVTITCRASEGIHNGLAWYQQKPGKAPKLLIYNANSLHSRVPSRFSGSGSGTDFTLTISSLQPEDFATYFCQQYYDYPLTFGQGTKLEIK | 0.091
14 | Humanized VH3 x Humanized VL5 (antibody, V domains shown) VH: EVQLVESGGGLVQPGGSLRLSCAPSGFTFSNYGMAWVRQAPGKGLVWVSSIHSGGGDTYYRDSVKGRFTISRDNAKNTLYLQMNSLRAEDTAVYYCARGRTPTGYYFDHWGQGTMVTVSS VL: EIVMTQSPATLSVSPGERATLSCRASEGIHNGLAWYQQKPGQAPRLLIYNANSLHSGIPARFSGSGSGTEFTLTISSLQSEDFAVYFCQQYYDYPLTFGQGTKLEIK | 0.07
15 | Humanized VH4 x Humanized VL5 (antibody, V domains shown) VH: QVQLVESGGGVVQPGRSLRLSCAASGFTFSNYGMAWVRQAPGKGLEWVASIHSGGGDTYYRDSVKGRFTISRDNSKNTLYLQMNSLRAEDTATYYCARGRTPTGYYFDHWGQGTMVTVSS VL: EIVMTQSPATLSVSPGERATLSCRASEGIHNGLAWYQQKPGQAPRLLIYNANSLHSGIPARFSGSGSGTEFTLTISSLQSEDFAVYFCQQYYDYPLTFGQGTKLEIK | 0.098
16 | Humanized VH3 x Humanized VL3 (antibody, V domains shown) VH: EVQLVESGGGLVQPGGSLRLSCAPSGFTFSNYGMAWVRQAPGKGLVWVSSIHSGGGDTYYRDSVKGRFTISRDNAKNTLYLQMNSLRAEDTAVYYCARGRTPTGYYFDHWGQGTMVTVSS VL: AIQLTQSPSSLSASVGDRVTITCRASEGIHNGLAWYQQKPGKAPKLLIYNANSLHSRVPSRFSGSGSGTDFTLTISSLQPEDFATYFCQQYYDYPLTFGQGTKLEIK | 0.051
17 | Humanized VH2 x Humanized VL1 (antibody, V domains shown) VH: EVQLVESGGGLVQPGGSLRLSCAASGFTFSNYGMAWVRQAPGKGLEWVASIHSGGGDTYYRDSVKGRFTISRDNAKNSLYLQMNSLRAEDTAVYYCARGRTPTGYYFDHWGQGTMVTVSS VL: DIQMTQSPSSLSASVGDRVTITCRASEGIHNGLAWYQQKPGKVPKLLIYNANSLHSGVPSRFSGSGSGTDFTLTISSLQPEDVATYFCQQYYDYPLTFGQGTKLEIK | 0.08
